Ten substances from PMC8724787 can be followed below.

Test [1] concerns the target DENV1 strain Hawaii envelope (E) protein on virions (Dengue virus 1 (strain Hawaii)). Nature of the test: ELISA; apparent.
The target of test [2] is DENV2 A259C (sE)2, disulfide engineered mutant dimer. Nature of the test: BLI (steady state binding).
The target of test [3] is DENV3 A257C (sE)2, disulfide engineered mutant dimer. The test can be described thus: BLI (steady state binding).
The target of test [4] is DENV4 A259C (sE)2, disulfide engineered mutant dimer. The test can be described thus: BLI (steady state binding).
For test [5], the target named is ZIKV-H/PF/2013 sE protein (aa 1-404). The test can be described thus: BLI (steady state binding).
The target in test [6] is DENV2 strain 16681 envelope (E) protein on virions (Dengue virus 2 (strain 16681)). Nature of the test: ELISA.
Test [7] deals with DENV3 strain H87 envelope (E) protein on virions (Dengue virus 3 (strain H87)). Nature of the test: ELISA. A general note: In an ELISA, binding on a coated surface is turned into a signal by an enzyme label.
Test [8] has as its target DENV4 strain 1-0093 envelope (E) protein on virions (Dengue virus 4 (strain 1-0093)). The test can be described thus: ELISA.
The target in test [9] is DENV1-FGA/89 sE protein (aa 1-395) (Dengue virus 1 (strain FGA/89)). The test can be described thus: crystal structure.
For test [10] the target is unchanged. The test can be described thus: crystal structure; unbound sE.
Test [11] concerns the target K^L66A C10 mAb mutant (IgG1) (human). Nature of the test: BLI.
Test [12] has as its target DENV3-paH881 sE protein (aa 1-393) (Dengue virus 3 (strain paH881)). The test can be described thus: crystal structure.
Test [13] shares this target. The test can be described thus: crystal structure; unbound sE.
The target in test [14] is DENV4_Burma/63632/1976 sE protein (aa 1-395) (Dengue virus 4 (strain Burma/63632/1976)). The test can be described thus: crystal structure.
The target of test [15] is ZIKV-H/PF/2013 sE protein (aa 1-404) (Zika virus (strain H/PF/2013)). The test can be described thus: crystal structure.
The target is the same in test [16]. Nature of the test: SEC-MALS; Superdex 200 10/300 GL; Tris 50 mM pH 8.0, NaCl 500 mM; about 150 ug protein; proteins alone and in complex. (In general: In gel filtration, larger molecules generally elute earlier.)

Turning to C10 bivalent F(ab')2, the Kd in [1] was 3.84 nM.
With “C10 intact bivalent IgG1 (human monoclonal antibody EDE1 C10) L:K66A”, the Kd was found to be 259 nM in [2], 223 nM in test [3], 1370 nM in [4] and 40.3 nM in test [5].
As to “C10 monovalent antigen binding fragment (Fab)”, the fold difference in EC50 for virion binding, bivalent versus monovalent was found to be 10 fold in test [6], 2 logs in [7] and 10 fold in test [8].
For orientation: stoichiometry N means the number of molecules, sites or subunits per partner or assembly. Take “DENV1-FGA/89 sE protein (aa 1-395) (domain or fragment)”: the stoichiometry N in test [9] and in test [10] was 2 throughout.
In test [11], “DENV2 A259C (sE)2, disulfide engineered mutant dimer (domain or fragment)” had a drop in affinity against wild-type C10 above 1 log.
In [11], “DENV3 A257C (sE)2, disulfide engineered mutant dimer (domain or fragment)” yielded a drop in affinity against wild-type C10 above 1 log.
Consider “DENV3-paH881 sE protein (aa 1-393) (domain or fragment)”, for which the stoichiometry N in test [12] and in test [13] was 2 in each case.
Turning to “DENV4 A259C (sE)2, disulfide engineered mutant dimer (domain or fragment)”, in test [11], the drop in affinity against wild-type C10 was above 1 log.
Substance “DENV4_Burma/63632/1976 sE protein (aa 1-395) (domain or fragment)” had a stoichiometry N in test [14] of 2.
On to “ZIKV-H/PF/2013 sE protein (aa 1-404) (domain or fragment)”, for which the stoichiometry N in test [15] and in test [16] was 2 in each case.
